Assay results published in patent publication US20230203142A1, “TREATMENT OF METABOLIC DISORDERS THROUGH THE TARGETING OF A NOVEL CIRCULATING HORMONE COMPLEX” (The President and Fellows of Harvard College, priority 2020, published 2023).
Blank lines part the entries; values can stand above or below the molecule they belong to.

Columns and labels:
primary mouse islets = experiment: Glucose-stimulated insulin secretion (GSIS), mouse islets; assay type: cell-based
Description: Primary islet isolation from mice was performed as previously described (Batchuluun et al., 2018; Prentice et al., 2014) and GSIS was assessed following acute treatment with NDPK-ADK in the presence or absence of FABP4. Insulin secretion assays were performed as previously described (Prentice et al., 2014). For primary islets, 20 islets were hand-picked into 1.5 ml tubes, washed twice with Krebs Ringer Buffer (KRB) without glucose, and pre-incubated in 500 μl low glucose (LG; 2.8 mM) KRB for 1 hour at 37° C. KRB was then removed and 250 μl of fresh LG KRB added. Islets were incubated for 20 minutes at 37° C. Supernatant was collected and 250 μl high glucose (HG; 16.7 mM) KRB added. Islets were incubated for 20 minutes at 37° C. In conditions where KCl was used, HG KRB was collected, and 250 μl KC1 (16.7 mM glucose, 30 mM KCl) KRB added. Islets were incubated for 20 minutes at 37° C., and supernatant collected. Following the stimulation protocol, cells were lysed in 100 μl acid ethanol (70% ethanol, 1% HCl in water) and stored at 4° C. overnight. Samples were evaporated using a SpeedVac until dried, and resuspended in 60 μl ultrapure water. DNA was quantified by Nanodrop (ThermoFisher, USA). Insulin from supernatant was quantified using insulin HTRF (Insulin Ultrasensitive Assay kit 62IN2PEH; Cisbio, USA).

recombinant ADK = target: T1, recombinant ADK (Homo sapiens, UniProt P55263); experiment: Recombinant kinase activity assay, ADK (Kinase-Glo); assay type: biochemical; details: recombinant ADK plus the added component
T1 construct: purchased Novus Biologicals or R&D Systems NBP1-44382 or 8024-AK-025
Description: (§1) An on-bead kinase assay was developed to measure the activity of endogenous NDPK and ADK pulled down from serum using a-Ab or c-Ab conjugated beads. Both NDPK and ADK are bi-directional kinases that will produce ATP or ADP depending on the substrates provided (FIGS. 4B-C). Kinase activity assays were performed in 384-well plates in reaction buffer (PBS with 0.1% BSA, 0.01% F-127, 5 mM MgCl2). Experiments with recombinant proteins were performed at final concentrations of 40 μg/ml for ADK and FABP4, and 20 ug/ml for NDPK, and a reaction volume of 10 μl. Antibodies were used at a final concentration of 80 ug/ml. Substrates were added in equimolar ratios depending on the kinase being assayed and the direction of the reaction in serial dose responses, with the highest concentration of 5 μM. Proteins and substrates were incubated for 1 hr at room temperature, and ADP and ATP production were monitored using ADP-Glo and Kinase-Glo kits, respectively, according the manufacturer instructions (V6930 and V6711 Promega, USA). Luminescence was quantified using a SpectraMax Paradigm plate reader 30 min after the addition of substrate. Consistent with the MS results, ADK activity, as measured by generation of ATP, was specifically observed in samples pulled down with a-Ab but not c-Ab (FIG. 5A). […] To test this possibility, the ATP and ADP generating activity of recombinant ADK was assessed in the presence of the proposed complex components.

recombinant NDPK = target: T2, recombinant NDPK (Homo sapiens, UniProt P15531); experiment: Recombinant kinase activity assay, NDPK (ADP-Glo/Kinase-Glo); assay type: biochemical; details: recombinant NDPK plus the added component
T2 construct: purchased Acro Biosystems NM1-H5147
T2 sequence (P15531 whole entry): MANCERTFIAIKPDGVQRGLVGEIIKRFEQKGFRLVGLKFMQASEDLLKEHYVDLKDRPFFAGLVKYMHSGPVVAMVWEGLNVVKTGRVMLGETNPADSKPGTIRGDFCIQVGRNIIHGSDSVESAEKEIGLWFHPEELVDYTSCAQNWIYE
Description: as §1

WT mice = experiment: Acute FABP4 administration; assay type: in vivo, mouse; details: 20 minutes post-injection, vs vehicle-injected controls
Description: (§2) Given the essential role for appropriate beta cell function and insulin secretion in the pathogenesis of diabetes, the pancreata of FABP4 deficient (FABP4^−/−) mice were examined for beta cell mass and insulin content. Animal care and experimental procedures were performed with approval from animal care committees of Harvard University. All mice were housed on a 12-hour light/dark cycle with ad libitum access to chow (PicoLab 5058 LabDiet) and water. FABP4−/− and WT mice were littermates obtained from heterozygous breeding. High fat diet (HFD) fed mice were provided ad libitum access to HFD (60% kcal from fat; Research Diets Inc., D12492i) for 14 weeks beginning at 4 weeks of age. Pancreata and isolated islets were obtained from 7-8-week-old male mice. Blood was collected every other week for 6 hour fasting plasma insulin and FABP4 levels. For acute FABP4 treatment, 10 μg of human recombinant FABP4 (produced in-house) or sterile PBS was injected intraperitoneally. Blood was collected from the tail vein at 0, 10, 20, 30, 60, 120, 240- and 360-minutes post injection for measurement of blood glucose, plasma insulin, and FABP4 levels.

WT NOD mice = experiment: Acute FABP4 administration; assay type: in vivo, mouse; details: 20 minutes post-injection, vs vehicle-injected controls
Description: as §2

Human NDPK-A = target: T3, Human NDPK-A (Homo sapiens, UniProt P15531); experiment: Microscale Thermophoresis (MST) one-to-one protein interaction with NDPK; details: recombinant proteins, binding to NDPK
T3 construct: purchased Acro Biosystems NM1-H5147
T3 sequence (P15531 whole entry): as above
Description: Additionally, one-to-one recombinant protein interaction assays were performed using Microscale Thermophoresis (MST) to independently validate the interactions between each of the proposed complex components. MST is a technology for the interaction analysis of biomolecules. MST is the directed movement of particles in a microscopic temperature gradient. Any change of the hydration shell of biomolecules due to changes in their structure/conformation results in a relative change of the movement along the temperature gradient and is used to determine binding affinities. MST allows measurement of interactions directly in solution without the need of immobilization to a surface (immobilization-free technology).
To perform this technique, proteins were desalted and buffer exchanged into PBS prior to labeling. […] Experiments were conducted independently with each of NDPK and ADK labeled with each kit (i.e., experiments were performed with lysine-labeled, cysteine-labeled, and His-labeled versions of each protein to confirm the site of labeling was not influencing detected interaction). […] Concentration of labeled proteins ranged from 12 nM to 20 nM, as determined by MST quantification to obtain a fluorescence intensity of ˜350 from each capillary tube. […]

ADK activity to generate ATP (recombinant ADK): significantly increased | activity of NDPK to generate ADP (recombinant NDPK): not further influenced | capacity of NDPK to produce ATP (recombinant NDPK): no effect
B1: FABP4: human recombinant FABP4 (produced in-house) (protein)
chain: CDAFVGTWKLVSSENFDDYMKEVGVGFATRKVAGMAKPNMIISVNGDVITIKSESTFKNTEISFILGQEFDEVTADDRKVKSTITLDGGVLVHVQKWDGKSTTIKRKREDDKLVVECVMKGVTSTRVYERA
GSIS (primary mouse islets; primary / WT mouse islets): no effect | NDPK-ADK-enhanced GSIS response (primary mouse islets; primary mouse islets, added to NDPK-ADK): significantly blunted | blood glucose levels (WT mice): significantly increased | plasma insulin (WT NOD mice): significant reduction

Kd (Human NDPK-A): ~1.8 nM | activity of NDPK to generate ADP (recombinant NDPK): significantly reduced | capacity of NDPK to produce ATP (recombinant NDPK): no effect
B2: ADK: recombinant human adenosine kinase (Novus Biologicals or R&D Systems) (protein, listed as Homo sapiens)
chain: MAAAEEEPKPKKLKVEAPQALRENILFGMGNPLLDISAVVDKDFLDKYSLKPNDQILAEDKHKELFDELVKKFKVEYHAGGSTQNSIKVAQWMIQQPHKAATFFGCIGIDKFGEILKRKAAEAHVDAHYYEQNEQPTGTCAACITGDNRSLIANLAAANCYKKEKHLDLEKNWMLVEKARVCYIAGFFLTVSPESVLKVAHHASENNRIFTLNLSAPFISQFYKESLMKVMPYVDILFGNETEAATFAREQGFETKDIKEIAKKTQALPKMNSKRQRIVIFTQGRDDTIMATESEVTAFAVLDQDQKEIIDTNGAGDAFVGGFLSQLVSDKPLTECIRAGHYAASIIIRRTGCTFPEKPDFH
